# In publication PMC4126857 (Structure (London, England : 1993), 2014):
# Where no end group is shown, it is not given here.
# T1: 6×His-ZYG-1 CPB K454E (C. elegans, UniProt Q9GT24 338-564, K454E)
# T1 sequence (looked up): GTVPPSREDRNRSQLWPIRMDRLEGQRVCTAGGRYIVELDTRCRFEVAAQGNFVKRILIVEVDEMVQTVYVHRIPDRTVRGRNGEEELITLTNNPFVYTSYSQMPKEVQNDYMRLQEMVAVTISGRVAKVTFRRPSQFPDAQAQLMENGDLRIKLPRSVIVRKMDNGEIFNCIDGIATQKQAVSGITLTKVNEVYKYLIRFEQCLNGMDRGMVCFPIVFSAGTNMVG
# B1: ZYG-1 cryptic polo box (CPB), aa 338-564 (domain or fragment, C. elegans, UniProt Q9GT24 338-564, looked up)
# chain: GTVPPSREDRNRSQLWPIRMDRLEGQRVCTAGGRYIVELDTRCRFEVAAQGNFVKRILIVEVDEMVQTVYVHRIPDRTVRGRNGEEELITLTNNPFVYTSYSQMPKEVQNDYMRLQKMVAVTISGRVAKVTFRRPSQFPDAQAQLMENGDLRIKLPRSVIVRKMDNGEIFNCIDGIATQKQAVSGITLTKVNEVYKYLIRFEQCLNGMDRGMVCFPIVFSAGTNMVG
# modifications: for crystallization: selenomethionine-substituted, lysine methylated; for MST: labelled with Monolith NT.115 Labeling Kit RED-NHS
# B2: Drosophila Plk4 cryptic polo box (DmPlk4 CPB), aa 383-601 (domain or fragment, UniProt O97143 383-601, looked up)
# chain: RISVPPLNTKRLLPTRYKTKNAIMSILRNGEVVLEFLKFRPTYNEDRINDICRISDDGQRIIIYQPDPGRGLPVREQPPDLQIPSGDCVYNYDNLPSKHWKKYIYGARFVGLVKSKTPKVTYFSTLGKCQLMETMTDFEIRFYSGAKLLKTPSEGLKVYDRNGMLLSDYSCSESRSLIEHGNECFTHCVNISNALEVAQTKDNSCFPVTIGRRPITDVQ
# modifications: for crystallization: lysine methylated; for MST: labelled with Monolith NT.115 Labeling Kit RED-NHS
# What was measured:
# [1] = biological target: the molecule itself; test: SAXS
# [2] = biological target: T1, 6×His-ZYG-1 CPB K454E; test: pull-down
Binder,stoichiometry N [1],binding result [2]
B1,2,–
"MEDDAPMNLCNEQFEEIEDSPIDDNDNESFYNADGDVELEEEEVHE (domain or fragment, C. elegans, UniProt P91870 1-46, looked up, also: MBP fusion) [MBP-CeSPD-2 AR (aa 1-46), WT]",–,binds
B2,2,–
